# B1: unmutated common ancestor (UCA) of the J038 lineage (antibody, V domains shown)
# VH: QLQLQESGPGLVKPSETLSLTCAVSGGSISSNYWSWIRQPPGKGLEWIGRISGSGGSTDYNPSLKSRVTISTDTSKNQFSLKLSSVTAADTAVYYCAREVAEDDYGYYQPYFDYWGQGVLVTVSS
# VL: DIQMTQSPSSLSASVGDRVTITCRASQGISSYLAWYQQKPGKAPKLLIYAASSLQSGVPSRFSGSGSGTDFTLTISSLQPEDFATYYCQQYNSLPLTFGGGTKVEIK
# Target: autologous SHIV_(1157ipd3N4) gp120 monomer (SHIV_(1157ipd3N4))
# Assay: BLI
binder,measurement,value
B1,Kd,37.8 nM
same,koff,0.0023 s⁻¹
